Measured values: the supplement of paper PMC10567573

B1: ETS1 (parent)
chain: YVRDRADLNKDKPVIPAAALAGYT
B2: TPRG1 (parent)
chain: ETIQGFWLLTKIDHWNNEKERILL

Variants of: B1
Assay: protein stability index of a GFP-peptide fusion (GPS, HEK-293T) (PSI 1-6); higher = more stable
Conditions: c terminus: a fixed tail appended
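Note: lentivirally expressed fusions sorted by FACS into six bins by GFP to DsRed ratio, PSI derived from sequencing read proportions per bin multiplied by bin number.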

Protein stability index: each site, then its substitutions
Y1: C 3.31; K 4.18; D 4.43; N 4.3; Q 4.41; T 4.03; M 3.85; A 4.46; W 3.77; V 3.65; G 4.02; E 4.38; S 4.24; H 3.7; F 2.22; L 3.79; P 3.92; R 3.88; I 3.73
V2: C 2.25; R 3.79; T 3.5; Q 2.93; E 4.25; A 4.01; I 2.17; K 3.61; F 2.88; D 4.34; S 3.76; M 3.81; Y 3.5; G 3.53; H 2.46; N 3.77; P 3; L 3.69; W 3.19
D4: N 3.01; H 1.94; I 2.05; Q 1.57; L 2.03; T 3.02; P 2.24; E 1.79; M 3.45; K 2.07; F 2.32; Y 3.23; S 1.77; A 2.68; W 1.83; C 3.5; G 2.47; R 2.1
R3: A 2.24; F 2.33; T 2.3; K 2.56; G 2.08; H 1.77; Y 2.54; M 1.52; E 2.76; S 2.12; L 1.55; D 2.88; C 1.75; Q 2.08; W 1.68; N 2.43; P 2.43; I 1.66; V 1.55
L8: N 2.53; F 2.72; K 2.19; H 2.29; G 2.12; R 1.88; P 1.87; C 1.96; Q 1.77; S 1.72; E 2.11; D 1.67; A 2.17; V 2.31; T 2.44; I 2.64; M 2.9
R5: L 1.82; I 3.08; K 2.11; F 3.08; P 1.72; H 1.95; Y 2.7; A 2.12; M 1.56; Q 1.57; G 2.24; T 2.02; C 2.36; W 2.48; N 1.94; V 1.44; E 2.36; S 2.23; D 2.14
A6: Y 2.28; F 2.46; N 2.08; T 1.88; G 2.49; K 1.2; S 2.05; Q 2.35; M 3.35; R 1.72; H 1.87; D 1.8; V 2.29; W 2.71; E 2.27; I 2.76; C 2; P 1.61; L 1.55
D7: F 2.17; Y 2.37; I 3.04; A 2.05; L 2.51; W 2.52; G 2.56; V 3.53; K 2.99; M 2.6; C 2.17; H 2.91; E 2.37; N 2.98; P 3.16; T 3.92; S 1.72; Q 2.77; R 3.02

Variants of: B2
Assay: as above
Conditions: c terminus: a fixed tail appended

Protein stability index: each site, then its substitutions
H14: R 4.13; I 2.49; D 2.88; C 1.39; L 2.25; V 3.16; S 2.41; M 2.37; G 1.34; F 2.41; E 2.51; W 2.98
L9: S 2.88; T 1.33; R 1.49; Q 1.65; P 2.7; H 1.87; M 2.1; N 1.16; K 1.54; I 3
K19: W 2.92; E 1.69; P 2.82; N 4.67; Y 2.27; Q 1.52; V 1.62; I 2.47; A 2.21; R 4.12; L 2.92; C 2.12; G 1.76; T 1.78
D13: N 3.41; K 3.06; P 2.19; F 2.23; Q 3.45; T 1.69; A 3.1; I 3.03; W 2.98; V 2.29; M 1.04
E18: M 2.79; A 2.8; I 1.56; C 2.45; S 3.54; N 2.14; K 1.71; L 3.57; V 3.83; H 2.3; W 2.03
K11: G 2.08; L 1.49; A 1.85; P 2.92; W 2.02; R 1.54; H 1.76; D 1.93; Y 4.47; S 1.71; F 3.4; I 2.32
N16: P 2.99; A 2.06; K 4.29; G 1.75; F 2.65; M 1.63; I 3.07; S 2.12; Q 1.77; T 3.58; E 1.92
I22: G 1.89; Q 3.38; E 2.16; L 3.26; Y 1.63; F 3.5; D 1.01; P 1.61; R 1.48; A 2.62; V 3.42; M 3.17; K 2.15; H 2.02; N 2.6
I12: G 1.13; A 3.59; M 3.11; C 2.08; R 1.75; N 2.83; K 2.07; H 1.9; T 1.58; S 2.09; E 2.55
E20: L 3.61; N 2.53; K 2.67; M 3.33; D 3.18; Q 2.27; A 3.4; P 2.37
W15: P 2.2; G 4.15; C 1.56; K 2.04; D 1.62; N 1.57; R 3.5; H 2.16; V 2.49; E 2.05; Q 2.09; I 1.74
R21: H 2.66; Q 3.52; T 2.79; I 2.51; D 1.3; P 2.58; G 2.98; E 3.83; C 3.09; L 2.75; K 1.66
L23: I 3.88; V 3.52; Y 4.45; K 1.23; A 2.89; E 2.38; P 1.95; S 3.2; M 3.45; W 3.52; Q 1.78; T 2.42; R 1.77
T10: G 2.35; H 2.31; E 2.91; A 3.73; D 1.8; Y 2.44; F 1.96; N 1.34; I 3.71; W 2.45; R 1.01; S 2.49; P 1.65
L24: Q 3.61; H 4.13; N 3.07; K 2.24; M 2.21; C 2.36; V 2.5; P 2.8; W 2.52; G 4.41
N17: T 2.14; Q 4.24; Y 3.59; A 2.33; S 2.2; I 2.46; K 3.22; C 2.54; F 2.36; M 3.42; V 3.23
